In patent US10538583 (dated 2020):
Where a chain is given by its changes, count along the chain named.

B1: 5E5VH5VH12_VL8 IgG1 (antibody, V domains shown)
VH: QLQLVESGGGLVQPGGSLRLSCAASGFTFGTYSMRWVRQVPRKALEWVSSIHTDGGGTAYRDSVKGRFTISRDNAKNTLYLQMNNLKPEDTAIYYCVIHGYSDWGQGTQVTVSS
VL: ATMLTQSPGSLSVVPGESASISCKTSQGLVHSDGKTYFYWFLQKPGQSPQQLIYQVSNRASGVPDRFTGSGSGTDFTLKISGVKAEDAGVYYCAHGTYYPHTFGSGTRLEIK
B2: mAb2 (antibody, V domains shown)
VH: QLVESGGGLVQPGGSLRLSCAASGFTFGTYSMRWVRQVPGKGLEWVSSIHTEGGGTAYRDSVKGRFTISRDNAKNTLYLQMNSLRAEDTAIYYCVIAGYSDWGQGTLVTVSS
VL: B1 VL with A1D, T2I, M3V, L4M, G9L, S12P, V14T, T68S, G82R, S105Q
B3: mAb10 (antibody, V domains shown)
VH: B2 VH with G28S, S83N, I91V
VL: DIVMTQSPLSLSVVPGEPASISCKTSQGLVHSDGKTYFYWFLQKPGQSPQQLIYQVSNRASGVPDRFSGSGSGTDFTLKISRVEAEDVGVYYCAHGTYYPHTFGQGTRLEIK
B4: mAb18 (antibody, V domains shown)
VH: B2 VH with G28S, V38A, G53A, S83N, I91V
VL: B3 VL with S12P, V14T, D33G, S68T, V88A
B5: 5E5VH5_VL8 IgG1 (antibody, V domains shown)
VH: B1 VH with H99A
VL: B1 VL
B6: mAb19 (antibody, V domains shown)
VH: B2 VH with G28S, V38A, E52D, G53A, S83N, A86P, I91V
VL: B3 VL with L9G, V14T, D33G, S68T, R82G, V88A, H95Q
B7: mAb1 (antibody, V domains shown)
VH: B2 VH
VL: B3 VL with S12P, V14T, P18S, S68T, E84K, V88A
B8: mAb12 (antibody, V domains shown)
VH: B2 VH with G28S, E52D, G53A, A86P
VL: B3 VL with V14T, S68T, E84K
B9: mAb11 (antibody, V domains shown)
VH: B2 VH with G28S, S83N, I91V
VL: B3 VL with V14T
B10: mAb14 (antibody, V domains shown)
VH: B2 VH with V3L, A73S, I91V
VL: B3 VL with S12P, V14T, F41Y, Q51L
B11: mAb16 (antibody, V domains shown)
VH: B2 VH with V38A, G53A, S83N, R85K, L107Q
VL: B3 VL with S12P, V14T, P18S, D33G, S68T, V88A, Q105S
B12: mAb4 (antibody, V domains shown)
VH: B2 VH with V38A
VL: B3 VL with S12P, V14T, P18S, E84K, V88A
B13: mAb20 (antibody, V domains shown)
VH: B2 VH with G28S, V38A, E52D, G53A, S83N, A86P, I91V
VL: B3 VL with L9G, V14T, D33G, S68T, R82G, V88A
B14: mAb7 (antibody, V domains shown)
VH: B2 VH with G28S, V38A, E52G, S83N
VL: B3 VL with S12P, V14T, P18S, E84K, V88A
B15: mAb13 (antibody, V domains shown)
VH: B2 VH with V3L, G28S, A73S, I91V
VL: B3 VL with S12P, V14T, F41Y, Q51L
B16: mAb17 (antibody, V domains shown)
VH: B2 VH with G28S, V38A, G53A, S83N, I91V
VL: B3 VL with S12P, V14T, D33G, S68T, V88A, H95Q
B17: mAb15 (antibody, V domains shown)
VH: B2 VH with V38A, G53A, S83N, R85K, L107Q
VL: B3 VL with S12P, V14T, P18S, D33G, S68T, V88A, H95Q, Q105S
B18: mAb5 (antibody, V domains shown)
VH: B2 VH with V38A, I91V
VL: B3 VL with S12P, V14T, P18S, S68T, E84K, V88A
B19: mAb9 (antibody, V domains shown)
VH: B2 VH with G28S, V38A, E52D, G53A, S83N, I91V
VL: B3 VL with V14T
B20: mAb6 (antibody, V domains shown)
VH: B2 VH with V38A, I91V
VL: B3 VL with S12P, V14T, P18S, E84K, V88A
B21: mAb8 (antibody, V domains shown)
VH: B2 VH with G28S, V38A, E52D, G53A, S83N, I91V
VL: B3 VL
B22: mAb3 (antibody, V domains shown)
VH: B2 VH with V38A
VL: B3 VL with S12P, V14T, P18S, S68T, E84K, V88A
B23: 5E5VH5_VLWT scFv-Fc (antibody, V domains shown)
VH: B1 VH with H99A
VL: B1 VL with H95Q
B24: 5E5VH12_VLWT scFv-Fc (antibody, V domains shown)
VH: B1 VH with H52S
VL: B1 VL with H95Q
B25: 5E5WT scFv-Fc (antibody, V domains shown)
VH: B1 VH with H52S, H99A
VL: B1 VL with H95Q
B26: 5E5VHWT_VL8 scFv-Fc (antibody, V domains shown)
VH: B1 VH with H52S, H99A
VL: B1 VL
B27: 5E5VH5VH12_VLWT IgG1 (antibody, V domains shown)
VH: B1 VH
VL: B1 VL with H95Q
B28: 5E5VH12_VLWT IgG1 (antibody, V domains shown)
VH: B1 VH with H52S
VL: B1 VL with H95Q
B29: 5E5WT (5E5) IgG1 (antibody, V domains shown)
VH: B1 VH with H52S, H99A
VL: B1 VL with H95Q
B30: 5E5VH5_VLWT IgG1 (antibody, V domains shown)
VH: B1 VH with H99A
VL: B1 VL with H95Q
B31: 5E5VHWT_VL8 IgG1 (antibody, V domains shown)
VH: B1 VH with H52S, H99A
VL: B1 VL
B32: 5E5VH12_VL8 IgG1 (antibody, V domains shown)
VH: B1 VH with H52S
VL: B1 VL

What follows are binders tested against human ApoC3 (human) (assay: SPR pH 5.5).
Sequence of human ApoC3 (human) (chain, as listed by the source): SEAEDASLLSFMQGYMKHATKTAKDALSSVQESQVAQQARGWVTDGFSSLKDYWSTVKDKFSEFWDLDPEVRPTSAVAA

B1: no binding.

Each binder was assayed against human ApoC3 (human) (assay: SPR pH 7.4, antibody immobilized).

In order of rising Kd:
1. B17  34.7 nM
2. B6  35.5 nM
3. B16  62.4 nM
4. B7  73.9 nM
5. B2  103 nM
6. B12  124 nM
7. B9  129 nM
8. B20  165 nM
9. B22  174 nM
10. B18  181 nM
11. B3  189 nM
12. B19  232 nM
13. B21  241 nM
14. B14  247 nM
15. B5  298 nM
16. B8  321 nM
17. B4  509 nM
18. B11  596 nM
19. B15  1000 nM
20. B13  1340 nM
21. B10  1760 nM

The binders below were run against human ApoC3 (human) (assay: SPR pH 5.5, antibody immobilized).

In order of falling Kd:
1. B20  861 nM
2. B14  583 nM
3. B19  541 nM
4. B9  503 nM
5. B12  432 nM
6. B18  408 nM
7. B8  343 nM
8. B3  334 nM
9. B22  323 nM
10. B2  290 nM
11. B16  257 nM
12. B7  253 nM
13. B21  242 nM
14. B6  157 nM
15. B17  86.2 nM

Each binder was assayed against human ApoC3 (human) (assay: SPR pH 7.4).

In order of rising Kd:
1. B25  0.02 nM
2. B24  0.51 nM
3. B26  0.58 nM
4. B23  0.59 nM

Target: human ApoC3 (human)
Assay: SPR pH 7.4
Remark: another data set of the same source

In order of rising Kd:
1. B28  0.0351 nM
2. B31  0.0363 nM
3. B29  0.0512 nM
4. B30  0.211 nM
5. B32  0.609 nM
6. B5  0.975 nM
7. B27  4.96 nM
8. B1  22.4 nM

Target: human ApoC3 (human)
Assay: SPR pH 5.5
Remark: another data set of the same source

In order of falling Kd:
1. B10  21.3 nM
2. B5  11.4 nM
3. B13  9.44 nM
4. B4  8.62 nM
5. B11  7.44 nM
6. B15  5.56 nM
7. B14  4.89 nM
8. B19  0.759 nM
9. B21  0.749 nM
10. B6  0.417 nM
11. B12  0.374 nM
12. B17  0.353 nM
13. B22  0.351 nM
14. B20  0.347 nM
15. B18  0.345 nM
16. B16  0.342 nM
17. B9  0.331 nM
18. B2  0.283 nM
19. B3  0.27 nM
20. B7  0.237 nM
21. B8  0.139 nM
22. B29  0.0499 nM

Target: human ApoC3 (human)
Assay: SPR pH 5.5
Remark: another data set of the same source

In order of falling Kd:
1. B27  20.2 nM
2. B5  11.4 nM
3. B32  8.79 nM
4. B30  1.31 nM
5. B28  1.02 nM
6. B31  0.0556 nM
7. B29  0.0499 nM

Target: human ApoC3 (human)
Assay: SPR pH 7.4
Remark: another data set of the same source

In order of falling Kd:
1. B15  4.19 nM
2. B10  2.96 nM
3. B4  1.33 nM
4. B5  0.975 nM
5. B11  0.687 nM
6. B13  0.586 nM
7. B9  0.173 nM
8. B19  0.149 nM
9. B18  0.148 nM
10. B22  0.11 nM
11. B21  0.102 nM
12. B3  0.0956 nM
13. B14  0.0928 nM
14. B8  0.0655 nM
15. B20  0.0599 nM
16. B2  0.0552 nM
17. B29  0.0512 nM
18. B16  0.0464 nM
19. B7  0.0454 nM
20. B6  0.0453 nM
21. B17  0.00538 nM
22. B12  0.00464 nM

Target: human ApoC3 (human)
Assay: SPR pH 5.5
Remark: another data set of the same source

In order of falling Kd:
1. B24  16 nM
2. B23  10.9 nM
3. B26  4.29 nM
4. B25  0.06 nM
